Experimental data taken from the supplement of paper PMC10065799, “High-throughput profiling of sequence recognition by tyrosine kinases and SH2 domains using bacterial peptide display” (eLife, 2023).

Assays:
[1] = molecular target: Grb2 SH2 (UniProt P62993); assay: SH2 binding enrichment of the phosphorylated peptide, bacterial display (enrichment ratio); higher = better substrate or ligand; peptides without Tyr show the background
[2] = molecular target: c-Src SH2; assay: as above
[3] = molecular target: SHP2-C SH2; assay: as above
[4] = molecular target: Fes (UniProt P07332); assay: phosphorylation enrichment, bacterial display (enrichment ratio); higher = better substrate or ligand; peptides without Tyr show the background
Sequence of Fes (P07332 whole entry, looked up): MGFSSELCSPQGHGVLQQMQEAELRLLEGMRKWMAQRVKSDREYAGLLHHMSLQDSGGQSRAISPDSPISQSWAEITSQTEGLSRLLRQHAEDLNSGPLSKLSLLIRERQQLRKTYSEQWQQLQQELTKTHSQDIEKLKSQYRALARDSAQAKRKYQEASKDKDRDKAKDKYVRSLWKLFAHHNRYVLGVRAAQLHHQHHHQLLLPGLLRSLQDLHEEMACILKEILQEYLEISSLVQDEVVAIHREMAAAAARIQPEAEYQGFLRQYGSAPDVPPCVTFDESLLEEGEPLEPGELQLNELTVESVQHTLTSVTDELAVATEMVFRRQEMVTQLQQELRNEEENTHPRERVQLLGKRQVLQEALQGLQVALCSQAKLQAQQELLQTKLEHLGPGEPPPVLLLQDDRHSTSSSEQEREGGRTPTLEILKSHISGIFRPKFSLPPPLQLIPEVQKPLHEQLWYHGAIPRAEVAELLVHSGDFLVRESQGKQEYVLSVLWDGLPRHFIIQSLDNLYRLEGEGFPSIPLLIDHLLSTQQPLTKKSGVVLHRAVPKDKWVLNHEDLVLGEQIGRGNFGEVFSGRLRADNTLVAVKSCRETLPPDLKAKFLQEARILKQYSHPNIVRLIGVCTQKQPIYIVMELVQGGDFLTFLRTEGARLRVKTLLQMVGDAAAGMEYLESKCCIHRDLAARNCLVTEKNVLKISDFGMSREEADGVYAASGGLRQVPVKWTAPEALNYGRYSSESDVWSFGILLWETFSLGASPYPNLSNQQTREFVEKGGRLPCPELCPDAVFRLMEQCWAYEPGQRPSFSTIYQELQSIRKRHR

[5] = test system: c-Abl (mouse); assay: as above
[6] = molecular target: Hck (UniProt P08631); assay: as above
Sequence of Hck (P08631 whole entry, looked up): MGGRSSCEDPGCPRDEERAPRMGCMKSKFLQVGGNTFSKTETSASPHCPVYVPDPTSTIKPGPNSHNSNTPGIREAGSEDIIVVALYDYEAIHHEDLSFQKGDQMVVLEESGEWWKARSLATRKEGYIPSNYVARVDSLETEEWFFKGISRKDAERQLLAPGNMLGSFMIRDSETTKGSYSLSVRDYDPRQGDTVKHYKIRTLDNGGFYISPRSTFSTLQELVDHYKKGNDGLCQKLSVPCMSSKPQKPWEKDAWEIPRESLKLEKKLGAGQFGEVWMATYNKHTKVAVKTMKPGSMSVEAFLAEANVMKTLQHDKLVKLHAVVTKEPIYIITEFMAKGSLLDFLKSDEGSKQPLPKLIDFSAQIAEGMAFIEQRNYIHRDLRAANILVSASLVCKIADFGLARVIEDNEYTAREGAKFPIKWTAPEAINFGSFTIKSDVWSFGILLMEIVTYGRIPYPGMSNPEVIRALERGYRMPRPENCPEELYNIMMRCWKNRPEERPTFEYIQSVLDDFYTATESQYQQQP

[7] = molecular target: FGFR1 (UniProt P11362); assay: as above
Sequence of FGFR1 (P11362 whole entry, looked up): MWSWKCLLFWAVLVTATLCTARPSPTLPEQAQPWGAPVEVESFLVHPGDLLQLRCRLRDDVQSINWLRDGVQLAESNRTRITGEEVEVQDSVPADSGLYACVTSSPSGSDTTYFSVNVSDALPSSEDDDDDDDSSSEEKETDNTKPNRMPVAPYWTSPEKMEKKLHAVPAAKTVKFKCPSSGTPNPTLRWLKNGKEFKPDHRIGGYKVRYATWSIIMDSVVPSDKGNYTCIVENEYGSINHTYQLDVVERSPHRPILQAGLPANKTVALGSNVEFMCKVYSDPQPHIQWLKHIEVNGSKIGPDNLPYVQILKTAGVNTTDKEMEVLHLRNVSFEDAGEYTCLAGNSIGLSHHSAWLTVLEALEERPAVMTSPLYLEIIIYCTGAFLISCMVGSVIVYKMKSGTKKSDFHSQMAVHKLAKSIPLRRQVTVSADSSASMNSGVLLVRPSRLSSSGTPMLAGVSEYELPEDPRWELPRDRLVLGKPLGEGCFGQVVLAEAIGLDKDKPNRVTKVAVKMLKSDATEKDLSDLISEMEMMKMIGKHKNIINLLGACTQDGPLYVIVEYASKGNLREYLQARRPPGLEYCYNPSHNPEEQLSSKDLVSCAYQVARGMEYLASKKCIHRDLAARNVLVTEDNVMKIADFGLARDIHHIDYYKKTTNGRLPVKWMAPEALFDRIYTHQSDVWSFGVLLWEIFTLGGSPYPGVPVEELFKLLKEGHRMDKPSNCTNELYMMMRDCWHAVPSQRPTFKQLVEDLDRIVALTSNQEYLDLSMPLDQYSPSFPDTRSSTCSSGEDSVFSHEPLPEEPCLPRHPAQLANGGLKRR

[8] = test system: Fer (mouse); assay: as above
[9] = molecular target: MERTK (UniProt Q12866); assay: as above
[10] = molecular target: FGFR3 (UniProt P22607); assay: as above
Sequence of FGFR3 (P22607 whole entry, looked up): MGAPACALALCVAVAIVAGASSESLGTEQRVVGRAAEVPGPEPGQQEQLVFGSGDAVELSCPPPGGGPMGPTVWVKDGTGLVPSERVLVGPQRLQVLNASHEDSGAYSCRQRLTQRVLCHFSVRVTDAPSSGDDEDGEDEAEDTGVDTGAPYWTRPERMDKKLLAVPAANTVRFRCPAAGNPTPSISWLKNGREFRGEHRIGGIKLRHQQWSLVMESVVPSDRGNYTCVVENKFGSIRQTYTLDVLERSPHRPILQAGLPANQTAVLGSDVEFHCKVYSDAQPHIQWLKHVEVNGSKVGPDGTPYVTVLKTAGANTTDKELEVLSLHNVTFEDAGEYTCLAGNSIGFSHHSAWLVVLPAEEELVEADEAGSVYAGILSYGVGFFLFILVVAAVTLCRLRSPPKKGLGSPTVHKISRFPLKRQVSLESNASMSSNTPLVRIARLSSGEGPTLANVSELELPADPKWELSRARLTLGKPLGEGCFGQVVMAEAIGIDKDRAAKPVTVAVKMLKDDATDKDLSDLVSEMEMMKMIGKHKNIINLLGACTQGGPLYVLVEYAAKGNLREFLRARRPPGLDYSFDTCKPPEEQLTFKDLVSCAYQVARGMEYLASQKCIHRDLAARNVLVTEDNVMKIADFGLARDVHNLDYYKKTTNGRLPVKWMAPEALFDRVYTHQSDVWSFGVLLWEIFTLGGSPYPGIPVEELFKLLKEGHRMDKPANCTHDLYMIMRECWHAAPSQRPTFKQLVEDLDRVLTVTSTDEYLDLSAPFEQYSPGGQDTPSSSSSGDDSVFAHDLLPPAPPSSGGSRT

[11] = test system: AncSZ; assay: as above
[12] = test system: c-Src; assay: as above
[13] = molecular target: EPHB1 (UniProt P54762); assay: as above
Sequence of EPHB1 (P54762 whole entry, looked up): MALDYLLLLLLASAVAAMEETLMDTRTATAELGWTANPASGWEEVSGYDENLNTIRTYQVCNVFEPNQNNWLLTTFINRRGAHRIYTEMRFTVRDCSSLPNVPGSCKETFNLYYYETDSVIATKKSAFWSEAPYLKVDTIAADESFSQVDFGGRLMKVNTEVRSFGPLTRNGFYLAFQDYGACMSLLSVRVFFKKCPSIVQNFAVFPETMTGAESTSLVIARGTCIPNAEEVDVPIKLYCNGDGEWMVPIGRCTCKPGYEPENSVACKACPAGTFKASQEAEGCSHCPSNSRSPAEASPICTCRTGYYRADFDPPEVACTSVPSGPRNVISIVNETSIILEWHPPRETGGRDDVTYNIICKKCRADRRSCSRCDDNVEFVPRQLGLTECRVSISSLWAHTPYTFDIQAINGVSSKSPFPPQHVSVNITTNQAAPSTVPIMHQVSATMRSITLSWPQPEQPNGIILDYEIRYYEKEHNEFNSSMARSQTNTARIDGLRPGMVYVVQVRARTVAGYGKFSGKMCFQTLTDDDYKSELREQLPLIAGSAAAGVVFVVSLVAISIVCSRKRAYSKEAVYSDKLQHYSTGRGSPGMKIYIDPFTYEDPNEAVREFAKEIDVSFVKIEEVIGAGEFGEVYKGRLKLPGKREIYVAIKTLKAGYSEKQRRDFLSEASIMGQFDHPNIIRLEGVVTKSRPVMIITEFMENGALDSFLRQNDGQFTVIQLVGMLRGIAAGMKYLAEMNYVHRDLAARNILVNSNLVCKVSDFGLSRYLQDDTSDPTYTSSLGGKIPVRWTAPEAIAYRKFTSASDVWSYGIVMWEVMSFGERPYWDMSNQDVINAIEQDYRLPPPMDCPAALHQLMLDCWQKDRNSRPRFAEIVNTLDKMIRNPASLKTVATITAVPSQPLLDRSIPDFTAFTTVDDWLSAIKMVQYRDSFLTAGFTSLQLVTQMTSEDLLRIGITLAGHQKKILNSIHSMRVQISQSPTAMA

[14] = molecular target: Jak2 (UniProt O60674); assay: as above
[15] = molecular target: EPHB2 (UniProt P29323); assay: as above
Sequence of EPHB2 (P29323 whole entry, looked up): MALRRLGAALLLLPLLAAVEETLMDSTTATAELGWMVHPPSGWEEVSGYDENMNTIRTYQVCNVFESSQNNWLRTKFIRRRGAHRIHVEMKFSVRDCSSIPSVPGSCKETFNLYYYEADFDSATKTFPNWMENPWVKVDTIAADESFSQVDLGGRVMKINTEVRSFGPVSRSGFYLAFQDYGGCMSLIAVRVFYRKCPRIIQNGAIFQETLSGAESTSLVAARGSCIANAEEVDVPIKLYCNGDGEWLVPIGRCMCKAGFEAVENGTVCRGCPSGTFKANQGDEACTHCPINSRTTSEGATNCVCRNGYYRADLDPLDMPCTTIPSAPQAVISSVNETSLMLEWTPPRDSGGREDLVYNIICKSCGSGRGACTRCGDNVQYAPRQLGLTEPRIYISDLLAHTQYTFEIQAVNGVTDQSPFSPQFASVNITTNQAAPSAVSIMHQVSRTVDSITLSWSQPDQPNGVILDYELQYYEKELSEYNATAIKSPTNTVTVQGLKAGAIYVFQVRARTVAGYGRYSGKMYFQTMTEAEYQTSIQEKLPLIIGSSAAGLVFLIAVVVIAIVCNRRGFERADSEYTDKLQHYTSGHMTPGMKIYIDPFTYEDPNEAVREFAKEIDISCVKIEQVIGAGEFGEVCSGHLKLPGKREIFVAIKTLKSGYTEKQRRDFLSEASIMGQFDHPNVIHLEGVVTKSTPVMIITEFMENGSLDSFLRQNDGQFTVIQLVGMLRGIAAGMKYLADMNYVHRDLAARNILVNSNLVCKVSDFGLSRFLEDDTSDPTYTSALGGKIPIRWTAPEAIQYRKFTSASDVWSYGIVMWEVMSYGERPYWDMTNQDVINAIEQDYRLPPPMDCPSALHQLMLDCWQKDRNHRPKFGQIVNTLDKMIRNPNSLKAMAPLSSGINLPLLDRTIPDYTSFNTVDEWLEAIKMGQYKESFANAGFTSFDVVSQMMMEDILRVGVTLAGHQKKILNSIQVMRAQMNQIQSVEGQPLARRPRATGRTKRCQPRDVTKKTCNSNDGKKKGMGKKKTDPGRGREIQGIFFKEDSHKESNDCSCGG

[16] = molecular target: Fyn (UniProt P06241); assay: as above
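Throughout, for SH2 binding enrichment of the phosphorylated peptide, bacterial display: peptide library displayed on the E. coli surface as eCPX fusions, selected cells deep-sequenced, score is each peptide's frequency after selection divided by its frequency in the input.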
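Throughout, for phosphorylation enrichment, bacterial display: 11-residue human phosphosite peptides and single-mutation variants displayed on the E. coli surface, counted by deep sequencing, each peptide's frequency after selection divided by its frequency in the unselected input library; frequency after pTyr selection over input frequency; kinase dosed for 20-30% of maximal phosphorylation in three min.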

SH2 binding enrichment [1]	SH2 binding enrichment [2]	SH2 binding enrichment [3]	Sequence	phosphorylation enrichment [4]	phosphorylation enrichment [5]	phosphorylation enrichment [6]	phosphorylation enrichment [7]	phosphorylation enrichment [8]	phosphorylation enrichment [9]	phosphorylation enrichment [10]	phosphorylation enrichment [11]	phosphorylation enrichment [12]	phosphorylation enrichment [13]	phosphorylation enrichment [14]	phosphorylation enrichment [15]	phosphorylation enrichment [16]
1.01	0.467	0.793	IVLRSYPASDH [NID2_Y449_G453D]	0.823	0.583	0.44	0.496	0.44	0.465	0.546	0.966	0.416	0.543	0.743	0.495	0.478
0.875	7.79	1.03	IVRSLYEDLED [VHL_Y185]	1.08	0.68	0.564	0.505	1.17	0.424	0.73	1.19	0.393	0.584	1.01	0.573	0.509
1.94	1.72	1.85	KACKHYLTKRT [ZBTB5_Y118_T121K]	1.17	1.05	0.582	0.629	0.668	0.605	1.19	0.667	0.581	0.493	1.3	0.662	0.595

More lines, now with the values behind:

Sequence	SH2 binding enrichment [1]	SH2 binding enrichment [2]	SH2 binding enrichment [3]	phosphorylation enrichment [4]	phosphorylation enrichment [5]	phosphorylation enrichment [6]	phosphorylation enrichment [7]	phosphorylation enrichment [8]	phosphorylation enrichment [9]	phosphorylation enrichment [10]	phosphorylation enrichment [11]	phosphorylation enrichment [12]	phosphorylation enrichment [13]	phosphorylation enrichment [14]	phosphorylation enrichment [15]	phosphorylation enrichment [16]
ISKQEYDEAGP [ACTC1_Y364]	0.921	6.16	0.718	1.29	0.79	0.616	0.522	0.627	0.518	0.819	1.28	0.598	0.65	1.31	0.741	0.602
ITRDEYPSNPM [CEMIP2_Y1015]	0.717	0.475	0.629	0.589	0.414	0.352	0.426	0.344	0.329	0.467	0.688	0.345	0.413	0.497	0.369	0.413
IVKAYYVRARA [AIPL1_Y268]	0.976	0.521	0.923	0.936	0.512	0.419	0.466	0.396	0.502	0.471	1.01	0.361	0.358	0.743	0.47	0.466
KAIMTYVFSFY [ACTN4_Y260_S262F]	0.987	0.561	1.08	1.27	0.966	0.464	0.559	0.54	0.436	0.794	1.19	0.507	0.63	1.06	0.592	0.438
KALKQYRAGPS [DDX27_Y763]	1.04	0.438	0.804	0.553	0.531	0.454	0.355	0.389	0.391	0.368	0.473	0.407	0.34	0.545	0.312	0.43
